We go through two molecules from patent US20150299328A1 (ARMAGEN TECHNOLOGIES, published 2015).

Assay [1] deals with T1, HIR extracellular domain (ECD) (human, UniProt P06213 28-956, limits assumed).
T1 construct: extracellular domain; also called HIR ECD; IR ECD
Kind of assay: ELISA, HIR ECD plated. The method, then:
The extracellular domain (ECD) of the HIR was purified by lectin affinity chromatography from serum free medium conditioned by CHO cells that were permanently transfected with the HIR ECD. The HIR ECD was plated in ELISA wells to bind the chimeric HIRMAb without IDUA fused, and the CHO-derived HIRMAb-IDUA fusion protein. […] The binding constants shown in FIG. 18 were determined by non-linear regression analysis of the binding isotherms.

For assay [2], the target named is T1, HIR extracellular domain (ECD). In words: ELISA, HIR ECD plated, biotinylated goat anti-human IgG detection. The protocol:
The affinity of the fusion protein for the HIR extracellular domain (ECD) was determined with an ELISA. CHO cells permanently transfected with the HIR ECD were grown in serum free media (SFM), and the HIR ECD was purified with a wheat germ agglutinin affinity column, as previously described in Coloma et al. (2000) Pharm Res, 17:266-274. The HIR ECD was plated on Nunc-Maxisorb 96 well dishes and the binding of the HIR Ab, or the HIR Ab-IDUA fusion protein, to the HIR ECD was detected with a biotinylated goat anti-human IgG (H+L) secondary antibody, followed by avidin and biotinylated peroxidase (Vector Labs, Burlingame, Calif.). The concentration of either HIR Ab or HIR Ab-IDUA fusion protein that gave 50% maximal binding was determined with a non-linear regression analysis.
Background: In an ELISA, binding on a coated surface is turned into a signal by an enzyme label.

B1: chimeric HIR Ab (human-mouse chimeric antibody to the human insulin receptor) (antibody, human IgG1, kappa)
heavy: not shown
light: DIQMTQSPSSLSASLGERVSLTCRASQDIGGNLYWLQQGPDGTIKRLIYATSSLDSGVPKRFSGSRSGSDYSLTISSLESEDFVDYYCLQYSSSPWTFGGGTKMEIKRTVAAPSVFIFPPSDEQLKSGTASVVCLLNNFYPREAKVQWKVDNALQSGNSQESVTEQDSKDSTYSLSSTLTLSKADYEKHKVYACEVTHQGLSSPVTKSFNRGEC
notes: Human IgG1 heavy chain constant region and human kappa light chain constant region; also called chimeric HIRMAb; HIRMAb
B1: the EC50 (in general, the midpoint of the concentration-response curve) in assay [1] was 750 pM; in assay [2] it was 610 pM.

B2: HIR Ab-IDUA fusion protein (COS cell derived; HIR Ab-HC-IDUA fusion/HIR Ab-LC antibody) (antibody, human IgG1, kappa)
heavy: not shown
light: DIQMTQSPSSLSASLGERVSLTCRASQDIGGNLYWLQQGPDGTIKRLIYATSSLDSGVPKRFSGSRSGSDYSLTISSLESEDFVDYYCLQYSSSPWTFGGGTKMEIKRTVAAPSVFIFPPSDEQLKSGTASVVCLLNNFYPREAKVQWKVDNALQSGNSQESVTEQDSKDSTYSLSSTLTLSKADYEKHKVYACEVTHQGLSSPVTKSFNRGEC
notes: Bivalent antibody-enzyme fusion; It was made by dual transfection of COS cells with pHIR Ab-LC and pCD-HC-IDUA; also called HIR Ab-IDUA fusion antibody
B2 displayed an EC50 in assay [2] of 930 pM.
